Publication PMC5760085

Legend:
[1] = target: Aleuria aurantia lectin (Aleuria aurantia) (UniProt P18891); assay: BLI; competition with L-Fuc: AAL-loaded biosensor blocked with 0.1 M L-Fuc in the second baseline step, and the mucin sample incubated with L-Fuc (BSM 1 μM to 0.1 M; MUC5B 1 μM to 100 μM)
[2] = target: Aleuria aurantia lectin (Aleuria aurantia) (UniProt P18891); assay: BLI; biotinylated AAL (1.5 μg/mL) loaded on High Precision Streptavidin (SAX) biosensors, mucin in solution; Octet RED96, kinetics mode, 25°C, 1000 rpm, sample diluent

Sequence of UniProt P18891 (P18891 whole entry): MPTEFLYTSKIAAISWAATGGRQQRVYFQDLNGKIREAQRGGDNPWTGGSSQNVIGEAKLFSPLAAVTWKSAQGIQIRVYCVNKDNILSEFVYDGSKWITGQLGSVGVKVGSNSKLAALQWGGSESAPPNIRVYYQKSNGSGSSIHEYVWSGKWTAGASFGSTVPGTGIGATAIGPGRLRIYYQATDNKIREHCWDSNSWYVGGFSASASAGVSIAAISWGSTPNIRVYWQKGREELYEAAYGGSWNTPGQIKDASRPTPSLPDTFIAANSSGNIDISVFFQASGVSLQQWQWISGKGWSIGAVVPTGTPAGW

fold lower association with 100 μM Fuc than without Fuc [1]: 5 times lower
fold lower binding response than MUC5B [2]: 10 times lower
Substance: Bovine Submaxillary Mucin (natural protein)
